# Source: patent US20240277861A1, “ANTI-HEPATITIS B VIRUS AGENT TARGETING HOST FACTOR LIPG” (PUROTECH BIO, INC., priority 2021, published 2024)
# T1: binding between preS1 and heparan sulfate enhanced by LIPG (Homo sapiens, UniProt Q9Y5X9)
# T1 construct: FLAG
# T1 sequence (Q9Y5X9 21-500): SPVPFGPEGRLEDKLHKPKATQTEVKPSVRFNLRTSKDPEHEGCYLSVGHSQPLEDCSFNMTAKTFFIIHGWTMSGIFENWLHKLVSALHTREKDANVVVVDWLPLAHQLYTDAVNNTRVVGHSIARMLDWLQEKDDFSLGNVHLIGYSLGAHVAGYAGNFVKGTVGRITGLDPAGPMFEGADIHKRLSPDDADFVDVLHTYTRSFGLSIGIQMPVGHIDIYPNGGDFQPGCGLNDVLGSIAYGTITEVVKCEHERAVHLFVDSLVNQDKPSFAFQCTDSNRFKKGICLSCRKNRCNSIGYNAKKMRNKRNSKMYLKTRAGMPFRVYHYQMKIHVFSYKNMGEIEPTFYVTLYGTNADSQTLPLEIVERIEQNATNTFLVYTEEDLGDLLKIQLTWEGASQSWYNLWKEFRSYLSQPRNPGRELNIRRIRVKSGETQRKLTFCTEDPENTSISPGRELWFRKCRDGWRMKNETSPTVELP
# Legend:
# HBV [1] = test: HBV attachment, uptake and replication in Huh7-LIPG cells; format: cell-based; details: Huh7-LIPG cells infected with HBV, 3 days after treatment
# Protocol: (§1) HBV-DNA and cccDNA were quantified by qPCR as described below. Total DNA was extracted from cells using DNeasy Blood & Tissue Kit (Qiagen, Hilden, Germany). HBV-DNA was quantified by qPCR analysis as previously reported (Honda. M. et al., J. Infect. Dis., 213, 1096-1106, 2016). The extracted DNA (50 ng) was treated with 10 U of Plasmid safe DNase I (Epicentre, Madison. WI) at 37° C. for 60 minutes and then treated at 70° C. for 30 minutes for DNase inactivation, cccDNA was quantified by qPCR analysis as previously reported (Honda, M. et al., J. Infect. Dis. 213, 1096-1106, 2016). Quantitative RT-PCR was performed as described below. The GenElute™ Mammalian Total RNA Miniprep Kit (Sigma-Aldrich) was used for extraction of total RNA, and the High Capacity cDNA Reverse Transcription Kit (Applied Biosystems, Carlsbad, CA) was used for cDNA synthesis. The 7500 Real Time PCR System (Applied Biosystems) was used for RT-PCR. Primers 5′-[…]-3′ (SEQ ID NO: 31) and 5′-[…]-3′ (SEQ ID NO: 32) and a probe 5′-FAM-[…]-MGB-3′ (SEQ ID NO: 33) were used for pregenomic RNA. Primer pairs and probes for LIPG, NTCP. 18SrRNA, and ACTB were obtained from the TaqMan assay reagents library.
# When the abundance of LIPG expression was compared among different liver cell lines. […] HepG2-NTCP-C4 cells with overexpression of FLAG-LIPG (HepG2-NTCP-C4-LIPG cells) were established (FIG. 2B), and the attachment and uptake of HBV into cells were assayed in the resulting cells. Heparin, which has been reported to inhibit HBV attachment (Schulze. A. et al., Hepatology 46: 1759-1768, 2007), and heparanase, an endo-β-D-glucuronidase that cleaves the heparan sulfate side chain in heparan sulfate proteoglycans (HSPGs) (Bame, KJ. Glycobiology,11: 91R-98R,2001), were used as control compounds. […] HBV attachment was detected by qPCR of HBV-DNA at 3 hours after HBV inoculation at 4° C. in the presence or absence of the compound (heparin or heparanase). […]
# HBV [2] = test: HBV attachment and uptake assay in HepG2-NTCP-C4-LIPG cells; format: cell-based; details: pretreated 1 hour
# Protocol: as §1
# When the abundance of LIPG expression was compared among different liver cell lines. […] HepG2-NTCP-C4 cells with overexpression of FLAG-LIPG (HepG2-NTCP-C4-LIPG cells) were established (FIG. 2B), and the attachment and uptake of HBV into cells were assayed in the resulting cells. Heparin, which has been reported to inhibit HBV attachment (Schulze. A. et al., Hepatology 46: 1759-1768, 2007), and heparanase, an endo-β-D-glucuronidase that cleaves the heparan sulfate side chain in heparan sulfate proteoglycans (HSPGs) (Bame, KJ. Glycobiology,11: 91R-98R,2001), were used as control compounds. Cells (HepG2-NTCP-C4-LIPG cells and HepG2-NTCP-C4 control cells) were pretreated with these compounds for 1 hour and then with HBV at 4° C. for 3 hours to allow HBV to attach the cells, washed to wash out HBV, and further incubated at 37° C. for 12 hours to detect uptake of HBV (FIG. 2C). In addition, the cells were further cultured in a conventional culture medium for 3 days after HBV inoculation to detect HBV DNA and cccDNA in the cells (FIG. 2C). HBV attachment was detected by qPCR of HBV-DNA at 3 hours after HBV inoculation at 4° C. in the presence or absence of the compound (heparin or heparanase). HBV attachment (FIG. 2D), uptake (FIG. 2E), and replication of HBV DNA and cccDNA (FIGS. 2F and 2G) were all increased in the HepG2-NTCP-C4-LIPG cells compared to the HepG2-NTCP-C4 control cells.
# Next, the effect of a LIPG inhibitor (GSK-264220A) on HBV attachment and uptake was examined. […] At the same time, this inhibitor had no effect on HepG2-NTCP-C4 control cells.
# [3] = biological target: T1, binding between preS1 and heparan sulfate enhanced by LIPG; test: Plate assay of binding between preS1 peptide and immobilized heparan sulfate with FLAG-LIPG; details: 10 or 100 nmol of peptide per well, concentration-dependent
# Protocol: FIG. 22-2 The effect of LIPG to promote HBV entry into cells and the effect of a LIPG-binding peptide and Netrin-1 to inhibit HBV entry into cells. E: A biotin-labeled form of heparan sulfate was added to a streptavidin-coated 96 well plate and left overnight at 4° C. to allow the heparan sulfate to bind to the plate. This plate was washed with TBS, and 10, 25, or 50 fmol of FLAG-LIPG was then added to each well to allow the reaction to proceed at room temperature for 2 hours. After the plate was washed, 10 or 100 nmol of LIPG-binding peptide LIPH4-NTNBS, LIPH4-23S, LIPH4-NTNBSA, or LIPH4-23SA was added to each well to allow the treatment to proceed at room temperature for 1 hour. Subsequently, the plate was washed, and 0.1 nmol of preS1-TMR was added to each well to allow the treatment to proceed at room temperature for another 1 hour. The plate was washed and then placed in a plate reader to measure the fluorescence of TMR.
# Furthermore, PXB cells treated with Netrin-1 were further treated with FLAG-LIPG, and the uptake of the preS1 peptide was examined, to find that the enhancement of the uptake of the preS1 peptide by FLAG-LIPG was suppressed by Netrin-1 (FIG. 22D). In addition, a biotin-labeled heparan sulfate was immobilized on a streptavidin-coated plate and the preS1 peptide was added thereto to study the binding between the preS1 region of HBV and heparan sulfate present on the cell surface.
# HBV [4] = test: Anti-HBV activities of LIPG-binding peptides in PXB cells; format: cell-based; details: for anti-HBV activity (effect to reduce HBV DNA and cccDNA copy numbers): HBV-infected PXB cells
# Protocol: (§2) An infection source medium was prepared by adding the HBV-infected chimeric mouse serum (PhoenixBio), DMSO, and a PEG 8000 solution to the PXB cell culture medium (PhoenixBio) at final concentrations of 5 genome equivalents/cell, 2%, and 4%, respectively. Various synthesized peptides were diluted to different concentrations in this medium, and the resulting media were added individually to PXB cells (PhoenixBio). After the cells were left to stand in a 5% CO2 incubator at 37° C. for 20 to 28 hours, the medium was removed and the wells were washed once with PBS(−). DMSO and one of the various synthesized peptides were added to the PXB cell culture medium at a final concentration of 2% and different concentrations, respectively, and the resulting media were added individually to the PXB cells to perform medium exchange. This medium exchange was performed at 1, 5, and 9 days post infection and samples were collected at 14 days post infection.
# (§3) SMI TEST™ M EX-R&D (Medical & Biological Laboratories) was used to extract DNA from the samples. The extracted DNA was used as a template for quantitative PCR of HBV-DNA. For cccDNA detection, the extracted DNA was treated with T5 exonuclease (New England Biolabs), and the resulting DNA was used as a template for quantitative PCR. The T5 exonuclease treatment was performed at 37° C. for 30 minutes, and the DNase was later inactivated by heating at 80° C. for 15 minutes. The following primer set was used for detection.
# PXB cells, fresh human liver cells isolated from PXB mice (human hepatocyte chimeric mice), are human liver cells that maintain human liver functions at high levels and allow persistent infection with hepatitis B virus (HBV). Therefore, PXB cells were used to evaluate the anti-HBV activities of LIPG-binding peptides. LIPG-binding peptides were chemically synthesized because they were added extracellularly (Eurofins Genomics K.K.). Clones that had shown excellent results in the studies of Examples 10 and 1 (KIgk-LIPH4-23, KIgk-LIPH4-74, KIgk-LIPH4-15, KIgk-L1l 14-2. KIgk-LIPH14-14. KIgk-LIPH4-87) were selected for chemical synthesis of the peptides. […] Therefore, LIPH4-NTNA and LIPH4-NTNB, which share a common sequence with netrins and consist of 16 amino acids, were also chemically synthesized. The chemically synthesized peptides were dissolved in DMSO for use in HBV assays in PXB cells.
# Next, the anti-HBV activity of full-length Netrin-1 was examined in PXB cells. A full-length human recombinant Netrin-1 protein consisting of 604 amino acid residues (molecular weight: 67.5 kDa, SEQ ID NO: 28) was purchased from R&D Systems. United States. A shRNA with the sequence […]ctcgagc[…] TTTTTTG (single underline: terminal sequences for cloning, lowercase letters: hairpin loop sequence) (SEQ ID NO: 64) was used to knock down the Netrin-1 gene.
# HBV [5] = test: Anti-HBV activities of LIPG-binding peptides delivered into PXB cells-1 (scFv fusions); format: cell-based; details: for HBV-DNA copy number: peptide concentrations (nM) indicated in FIG. 41B; for cccDNA copy number: peptide concentrations (nM) indicated in FIG. 41C
# Protocol: as §2, §3
# The anti-HBV activities of LIPG-binding peptides delivered into cells were evaluated using PXB cells and anti-ASGR single-chain antibody-LIPG-binding peptide fusions. Of the fusions prepared in Example 16, 10M-L23N, 10M-L23SN. 10M-L23SN-S39, and 10M-LNTSN were used. According to the timeline shown in FIG. 41A, the anti-HBV activities of the fusions were evaluated using the methods described in “(10-5) Infection experiment using PXB cells” and “(10-6) Quantification of HBV-DNA and cccDNA”.
molecule,measurement,setting,value
CCN(c1nc(N)c(C(=O)N=C(N)N)nc1Cl)C(C)C [5-(N-ethyl-N-isopropyl)amiloride],LIPG-mediated increase in HBV replication (cccDNA),HBV [1],no effect
heparanase,"increase in HBV attachment, uptake, and replication of HBV DNA and cccDNA in LIPG-overexpressing cells",HBV [2],reduced this increase to the same level as the control
CN(C)CCCN1c2ccccc2Sc2ccc(Cl)cc21 [chlorpromazine],LIPG-mediated increase in HBV replication (cccDNA),HBV [1],no effect
NARHNTAG (LIPH4-NTNBsA),LIPG-mediated enhancement of binding between preS1 and heparan sulfate,[3],inhibited
same,anti-HBV activity (effect to reduce HBV DNA and cccDNA copy numbers),HBV [4],as strongly as the original polypeptides
same,activity in terms of copy number of HBV-DNA relative to LIPH4-NTNBs,"HBV [4]; PXB cells, each concentration",equal to or greater than that of LIPH4-NTNBs
same,activity in terms of copy number of cccDNA relative to LIPH4-NTNBs,"HBV [4]; PXB cells, each concentration",equal to or greater than that of LIPH4-NTNBs
heparin,"increase in HBV attachment, uptake, and replication of HBV DNA and cccDNA in LIPG-overexpressing cells",HBV [2],reduced this increase to the same level as the control
LNARDNTR (LIPH4-23SA),LIPG-mediated enhancement of binding between preS1 and heparan sulfate,[3],inhibited
same,anti-HBV activity (effect to reduce HBV DNA and cccDNA copy numbers),HBV [4],as strongly as the original polypeptides
"10M-L23N: fusion of anti-ASGR scFv ASGR3-10M, cleavage sequence, LIPH4-23, S28, nuclear localization signal (SEQ ID NO: 127) (protein, cleavage sequence + LIPH4-23 + Flag-tag + His-tag + S28 + nuclear localization signal) RVRRLNCRDNTRPVMSAMTCDYKDDDDKHHHHHHHPFVIGAGVLGALGTGIGGITTSTQFYYKPAAKRVKLD",HBV-DNA copy number,HBV [5],remarkably reduced
same,cccDNA copy number,HBV [5],remarkably reduced
"10M-L23SN: fusion of ASGR3-10M scFv, cleavage sequence, LIPH4-23s, S28, nuclear localization signal (SEQ ID NO: 128) (protein, cleavage sequence + LIPH4-23S + Flag-tag + His-tag + S28 + nuclear localization signal) RVRRLNCRDNTRDYKDDDDKHHHHHHHPFVIGAGVLGALGTGIGGITTSTQFYYKPAAKRVKLD",HBV-DNA copy number,HBV [5],remarkably reduced
same,cccDNA copy number,HBV [5],remarkably reduced
"10M-L23SN-S39: fusion of ASGR3-10M scFv, cleavage sequence, LIPH4-23s, S39, nuclear localization signal (SEQ ID NO: 129) (protein, cleavage sequence + LIPH4-23S + Flag-tag + His-tag + S39 + nuclear localization signal) RVRRLNCRDNTRDYKDDDDKHHHHHHHPFVIGAGVLGALGTGIGGITTSTQFYYKLSQELNGDMERPAAKRVKLD",HBV-DNA and cccDNA copy numbers,HBV [5]; added concentrations 2.5 to 25 nM,remarkably reduced
same,HBV-DNA copy number,HBV [5],remarkably reduced
same,cccDNA copy number,HBV [5],remarkably reduced
